# According to publication PMC5409194 (Journal of Visualized Experiments : JoVE, 2017):
# B1: C-terminal fragment (residue 323-785) of vaccinia virus protein D5 (domain or fragment)
# chain: GNKLFNIAQRILDTNSVLLTERGDYIVWINNSWKFNSEEPLITKLILSIRHQLPKEYSSELLCPRKRKTVEANIRDMLVDSVETDTYPDKLPFKNGVLDLVDGMFYSGDDAKKYTCTVSTGFKFDDTKFVEDSPEMEELMNIINDIQPLTDENKKNRELYEKTLSSCLCGATKGCLTFFFGETATGKSTTKRLLKSAIGDLFVETGQTILTDVLDKGPNPFIANMHLKRSVFCSELPDFACSGSKKIRSDNIKKLTEPCVIGRPCFSNKINNRNHATIIIDTNYKPVFDRIDNALMRRIAVVRFRTHFSQPSGREAAENNDAYDKVKLLDEGLDGKIQNNRYRFAFLYLLVKWYKKYHVPIMKLYPTPEEIPDFAFYLKIGTLLVSSSVKHIPLMTDLSKKGYILYDNVVTLPLTTFQQKISKYFNSRLFGHDIESFINRHKKFANVSDEYLQYIFIEDISSP
# Target: the molecule itself
# Test: […]
protein,measurement,value
B1,stoichiometry N,6
